Values joined by “and” are separate entries in the source; they are usually repeats but may differ in a detail not shown here. Identical values can stand only once.
Target: the molecule itself
Assay: cross-linking; purified FlgD with EDC and Sulfo-NHS (molar ratio 1 : 2000) or DTSSP (1 : 50), products on SDS-PAGE

B1: S. enterica FlgD (flagellar hook cap protein, 232 amino acid residues) (natural protein)
chain: MSIAVNMNDPTNTGVKTTTGSGSMTGSNAADLQSSFLTLLVAQLKNQDPTNPLQNNELTTQLAQISTVSGIEKLNTTLGAISGQIDNSQSLQATTLIGHGVMVPGTTILAGKGAEEGAVTSTTPFGVELQQPADKVTATITDKDGRVVRTLEIGELRAGVHTFTWDGKQTDGTTVPNGSYNIAITASNGGTQLVAQPLQFALVQGVTKGSNGNLLDLGTYGTTTLDEVRQII
notes: Separates on gel filtration into a pentamer and a monomer fraction; A seleno-methionine form (E. coli B834(DE3)) was used for phasing only; also called full-length FlgD; source: E. coli BL21(DE3)pLysS, purified (Q-Sepharose, Butyl-Sepharose, Superdex 200)
With B1 the “stoichiometry N” value was 5 and 10.
